Assay results from patent publication US6673770B1, “Peptides for the treatment, prophylaxis, diagnosis and monitoring of autoimmune diseases” (Upither B.V., priority 1998, dated 2004).

Biological target: MHC class II RT1.B^L (Lewis rat), isolated molecules (rat (Lewis))

mycobacterial hsp65 180-188 peptide … gave an IC50 of 32 to 64 µM.
